The source of these data is patent US20080207526A1.

The target of test [1] is recombinant water-soluble HLA-DR4 (DRA/DRB1*0401) (human).
Test [2] deals with recombinant water-soluble HLA-DR2 (DRB1*1501) (human).
Test [3] deals with recombinant water-soluble HLA-DR4 (DRA/DRB1*0401) (human). The source holds these as a separate data set.
Test [4] has as its target recombinant water-soluble HLA-DR1 (DRA/DRB1*0101) (human).
Test [5] has the same target. This is another data set of the same source.
Test [6] concerns the target T1, recombinant water-soluble HLA-DR4 (DRA/DRB1*0401) (human).
T1 chain 1: not shown
T1 chain 2: not shown

Test [7] concerns the target T1, recombinant water-soluble HLA-DR4 ….
The target in test [8] is T2, recombinant water-soluble HLA-DR1 (DRA/DRB1*0101) (human).
T2 chain 1: not shown
T2 chain 2: not shown

Test [9] concerns the target T2, recombinant water-soluble HLA-DR1 ….
In test [10] the target is T3, HLA-DR4 on antigen presenting cells (L cells transfected with DR4; Priess cells DRB1*0401/DRB4*0101) (human).
T3 chain 1: not shown
T3 chain 2: not shown
Nature of the test: cell-based or functional assay.

Where two headings read alike, the source gives them in different places.

For Copolymer 1, poly(Y,E,A,K), the affinity determined by competition with biotinylated competitor in [1] was 2.5 µM; in test [5], 8 µM. Moreover, the percent of added YEAK in the bound fraction in [2] was 80%; in test [3], greater than 95%; in [4], greater than 95%. For AAEYKAAAAAAAAAA (modifications not checked) [peptide SEQ ID NO: 26], in test [6], the affinity determined by competition with biotinylated competitor turned out to be 1.8 µM. Consider EAKYAAAAAAKAAAA (modifications not checked) [peptide SEQ ID NO: 18], for which the affinity determined by competition with biotinylated competitor in [6] amounted to 4.4 µM; in test [7] it was 3 µM; in test [8], 33 µM.

On to AKKYEAAAAAAAAAA (modifications not checked) [peptide SEQ ID NO: 21], for which the affinity determined by competition with biotinylated competitor in test [6] came out at 2.2 µM. Turning to AAKYAEAAAAKAAAA (modifications not checked) [peptide SEQ ID NO: 15], the affinity determined by competition with biotinylated competitor was 1.8 µM in test [6], 16 µM in [9], less than 1 µM in test [7] and 42 µM in test [8]. As for AAEYAAAAAAKAAAA (modifications not checked) [peptide SEQ ID NO: 12], the figures for the affinity determined by competition with biotinylated competitor in test [6] and in [8] were 3.2 µM and 47 µM, respectively. Take AYKAEAAAAAAAAAA (modifications not checked) [peptide SEQ ID NO: 35]: in [6], the affinity determined by competition with biotinylated competitor was 1.3 µM. In turn, AEKYAAAAAAKAAAA (modifications not checked) [peptide SEQ ID NO: 6] returned an inhibition of the DR4-restricted 3838 T cell clone (IL-2 secretion) in test [10] greater than 80%. Molecule AAKYEAAAAAAAAAA (modifications not checked) [peptide SEQ ID NO: 28] displayed an inhibition of the DR4-restricted 3838 T cell clone (IL-2 secretion) in test [10] greater than 80%. With EKKYAAAAAAKAAAA (modifications not checked) [peptide SEQ ID NO: 17], the inhibition of the DR4-restricted 3838 T cell clone (IL-2 secretion) in test [10] is greater than 80%. Besides, in [6], the affinity determined by competition with biotinylated competitor was determined as 1.8 µM. Take AEYAKAAAAAAAAAA (modifications not checked) [peptide SEQ ID NO: 32]: the affinity determined by competition with biotinylated competitor in test [6] is 3 µM. On the same count and under the same terms, next, AAAYAAAAAAKAAAA (modifications not checked) [peptide SEQ ID NO: 5]: 7 µM. With AKYAEAAAAAAAAAA (modifications not checked) [peptide SEQ ID NO: 36], the affinity determined by competition with biotinylated competitor in test [6] is 3 µM. Same read-out and setting: then KEAYAAAAAAKAAAA (modifications not checked) [peptide SEQ ID NO: 10], with 4.5 µM; and AAKYEAAAAAKAAAA (modifications not checked) [peptide SEQ ID NO: 14], with 4 µM. As for AEEYAAAAAAKAAAA (modifications not checked) [peptide SEQ ID NO: 11], the inhibition of the DR4-restricted 3838 T cell clone (IL-2 secretion) in test [10] was greater than 80%. With AKEYAAAAAAKAAAA (modifications not checked) [peptide SEQ ID NO: 7], the values for the affinity determined by competition with biotinylated competitor in test [6] and in [8] were 4.5 µM and 19 µM, respectively. In test [10], EAAYAAAAAAKAAAA (modifications not checked) [peptide SEQ ID NO: 16] gave an inhibition of the DR4-restricted 3838 T cell clone (IL-2 secretion) greater than 80%. Besides, in test [6], the affinity determined by competition with biotinylated competitor was found to be 5 µM. Turning to EKAYAAAAAAKAAAA (modifications not checked) [peptide SEQ ID NO: 13], the affinity determined by competition with biotinylated competitor in test [6] came out at 3.3 µM. As for AEKAYAAAAAAAAAA (modifications not checked) [peptide SEQ ID NO: 33], in test [10], the inhibition of the DR4-restricted 3838 T cell clone (IL-2 secretion) is greater than 80%. The affinity determined by competition with biotinylated competitor in [6] (remark: other sources report otherwise) was less than 1 µM.
